Experimental findings from the supplement of paper PMC10567573 are described below.

To fix the notation:
B1: MNAT1 (parent)
chain: LAPIHKLEEALYEYQPLQIETYGP
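Also: lentivirally expressed fusions sorted by FACS into six bins by GFP to DsRed ratio, PSI derived from sequencing read proportions per bin multiplied by bin number.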

The variants in the series derive from B1. Put plainly: protein stability index of a GFP-peptide fusion (GPS, HEK-293T) (PSI 1-6); higher = more stable. Particulars: c terminus: a fixed tail appended.
Take LAPIHKLVEALYEYQPLQIETYGP: the protein stability index was 1.53.

Consider LAPIHKLPEALYEYQPLQIETYGP, for which the protein stability index came to 2.19.

In the case of LAPIHKLGEALYEYQPLQIETYGP, the protein stability index was 2.02.

For the variant LAPIHKLIEALYEYQPLQIETYGP, the protein stability index was determined as 3.59.

Turning to LAPIHKLDEALYEYQPLQIETYGP, the protein stability index amounted to 2.52.

Regarding LAPIHKLAEALYEYQPLQIETYGP, the protein stability index came out at 1.55.

As for LAPIHKLREALYEYQPLQIETYGP, the protein stability index amounted to 2.26.

Turning to LAPIHKLYEALYEYQPLQIETYGP, the protein stability index was 2.08.

For LAPIHKLFEALYEYQPLQIETYGP, the protein stability index is 3.18.

Take LAPIHKLTEALYEYQPLQIETYGP: the protein stability index stood at 2.

Turning to LAPIHKLNEALYEYQPLQIETYGP, the protein stability index came to 1.8.

With LAPIHKLSEALYEYQPLQIETYGP, the protein stability index is 1.75.

Consider LAPIHKLMEALYEYQPLQIETYGP, for which the protein stability index is 3.31.

Take LAPIHKLHEALYEYQPLQIETYGP: the protein stability index was 1.67.

For LAPIHKLCEALYEYQPLQIETYGP, the protein stability index was 3.13.

In the case of LAPIHKLQEALYEYQPLQIETYGP, the protein stability index is 2.05.

With LAPIHKLWEALYEYQPLQIETYGP, the protein stability index worked out at 3.45.

In the case of LAPIHKLKEALYEYQPLQIETYGP, the protein stability index was found to be 2.52.

In the case of LAPIHKLEEALYWYQPLQIETYGP, the protein stability index is 2.08.

LAPIHKLEEALYHYQPLQIETYGP: the protein stability index was found to be 2.7.

With LAPIHKLEEALYNYQPLQIETYGP, the protein stability index came to 1.61.

For LAPIHKLEEALYFYQPLQIETYGP, the protein stability index stood at 2.29.

Consider LAPIHKLEEALYPYQPLQIETYGP, for which the protein stability index came to 1.68.

In the case of LAPIHKLEEALYTYQPLQIETYGP, the protein stability index stood at 2.14.

Turning to LAPIHKLEEALYIYQPLQIETYGP, the protein stability index turned out to be 2.17.

Consider LAPIHKLEEALYVYQPLQIETYGP, for which the protein stability index is 2.04.

In the case of LAPIHKLEEALYDYQPLQIETYGP, the protein stability index turned out to be 2.9.

As to LAPIHKLEEALYYYQPLQIETYGP, the protein stability index is 1.61.

Regarding LAPIHKLEEALYMYQPLQIETYGP, the protein stability index came out at 2.49.

With LAPIHKLEEALYGYQPLQIETYGP, the protein stability index is 2.37.

For the variant LAPIHKLEEALYCYQPLQIETYGP, the protein stability index worked out at 1.64.

As to LAPIHKLEEALYAYQPLQIETYGP, the protein stability index came out at 1.53.

On to LAPIHKLEEALYQYQPLQIETYGP, for which the protein stability index worked out at 1.43.

LAPIHKLEEALYRYQPLQIETYGP: the protein stability index came out at 1.8.

With LAPIHKLEEALYSYQPLQIETYGP, the protein stability index worked out at 1.58.

LAPIHKLEEALYLYQPLQIETYGP: the protein stability index turned out to be 2.22.

LAPIHKLEEALYKYQPLQIETYGP: the protein stability index came out at 1.83.

As for LAPKHKLEEALYEYQPLQIETYGP, the protein stability index was determined as 2.17.

As to LAPNHKLEEALYEYQPLQIETYGP, the protein stability index was 2.35.

With LAPMHKLEEALYEYQPLQIETYGP, the protein stability index came out at 1.92.

As for LAPRHKLEEALYEYQPLQIETYGP, the protein stability index came out at 2.75.

On to LAPPHKLEEALYEYQPLQIETYGP, for which the protein stability index came out at 2.55.

In the case of LAPSHKLEEALYEYQPLQIETYGP, the protein stability index was 2.3.

Turning to LAPHHKLEEALYEYQPLQIETYGP, the protein stability index is 2.63.

Consider LAPVHKLEEALYEYQPLQIETYGP, for which the protein stability index amounted to 2.13.

Turning to LAPGHKLEEALYEYQPLQIETYGP, the protein stability index was 3.06.

Take LAPQHKLEEALYEYQPLQIETYGP: the protein stability index was 2.7.

For LAPWHKLEEALYEYQPLQIETYGP, the protein stability index is 1.59.

LAPTHKLEEALYEYQPLQIETYGP: the protein stability index is 2.15.

For LAPFHKLEEALYEYQPLQIETYGP, the protein stability index came out at 1.88.

Turning to LAPLHKLEEALYEYQPLQIETYGP, the protein stability index was determined as 2.04.

For the variant LAPYHKLEEALYEYQPLQIETYGP, the protein stability index came to 1.66.

As to LAPIHKLEEALSEYQPLQIETYGP, the protein stability index was 1.87.

As for LAPIHKLEEALVEYQPLQIETYGP, the protein stability index was determined as 2.13.

Consider LAPIHKLEEALLEYQPLQIETYGP, for which the protein stability index was found to be 2.21.

As to LAPIHKLEEALQEYQPLQIETYGP, the protein stability index was 1.88.

LAPIHKLEEALAEYQPLQIETYGP: the protein stability index was 1.27.

Turning to LAPIHKLEEALREYQPLQIETYGP, the protein stability index came to 2.19.

As for LAPIHKLEEALFEYQPLQIETYGP, the protein stability index amounted to 1.19.

On to LAPIHKLEEALMEYQPLQIETYGP, for which the protein stability index worked out at 2.25.

LAPIHKLEEALPEYQPLQIETYGP: the protein stability index came out at 2.23.

On to LAPIHKLEEALWEYQPLQIETYGP, for which the protein stability index is 2.39.

Consider LAPIHKLEEALTEYQPLQIETYGP, for which the protein stability index was found to be 2.24.

As to LAPIHKLEEALHEYQPLQIETYGP, the protein stability index was found to be 1.54.

As for LAPIHKLEEALEEYQPLQIETYGP, the protein stability index was 2.65.

LAPIHKLEEALCEYQPLQIETYGP: the protein stability index was 1.82.

In the case of LAPIHKLEEALDEYQPLQIETYGP, the protein stability index is 3.07.

For the variant LAPIHKLEEALGEYQPLQIETYGP, the protein stability index was determined as 2.64.

As to LAPIHKLEEALKEYQPLQIETYGP, the protein stability index was determined as 1.93.

Take LAPIHKLEEALIEYQPLQIETYGP: the protein stability index is 2.64.

With LAPIHKLEEALNEYQPLQIETYGP, the protein stability index came out at 3.07.

As for LAPIHKLEEALYEDQPLQIETYGP, the protein stability index is 4.2.

With LAPIHKLEEALYECQPLQIETYGP, the protein stability index amounted to 2.54.

Take LAPIHKLEEALYEAQPLQIETYGP: the protein stability index worked out at 3.19.

On to LAPIHKLEEALYEEQPLQIETYGP, for which the protein stability index came to 3.43.

Consider LAPIHKLESALYEYQPLQIETYGP, for which the protein stability index came to 1.71.

On to LAPIHKLEAALYEYQPLQIETYGP, for which the protein stability index was found to be 2.48.

LAPIHKLEPALYEYQPLQIETYGP: the protein stability index worked out at 2.25.

For LAPIHKLEIALYEYQPLQIETYGP, the protein stability index turned out to be 2.42.

On to LAPIHKLEMALYEYQPLQIETYGP, for which the protein stability index came out at 2.34.

On to LAPIHKLEKALYEYQPLQIETYGP, for which the protein stability index amounted to 2.26.

For the variant LAPIHKLENALYEYQPLQIETYGP, the protein stability index is 1.78.

Regarding LAPIHKLEQALYEYQPLQIETYGP, the protein stability index was found to be 1.91.

In the case of LAPIHKLEWALYEYQPLQIETYGP, the protein stability index amounted to 2.08.

Turning to LAPIHKLEFALYEYQPLQIETYGP, the protein stability index was 2.25.

As for LAPIHKLELALYEYQPLQIETYGP, the protein stability index is 3.09.

Regarding LAPIHKLEHALYEYQPLQIETYGP, the protein stability index came to 2.15.

For LAPIHKLEGALYEYQPLQIETYGP, the protein stability index stood at 2.62.

As for LAPIHKLERALYEYQPLQIETYGP, the protein stability index is 1.91.

For the variant LAPIHKLETALYEYQPLQIETYGP, the protein stability index came out at 2.16.

Consider LAPIHKLEDALYEYQPLQIETYGP, for which the protein stability index was found to be 2.25.

Take LAPIHKLEYALYEYQPLQIETYGP: the protein stability index was determined as 1.32.

For LAPIHKLECALYEYQPLQIETYGP, the protein stability index worked out at 2.68.

On to LAPIHKLEVALYEYQPLQIETYGP, for which the protein stability index is 3.14.
